According to a protein production outcome set (Wang et al. 2014):

Test: label from the status in PepcDB records

Row | Sequence | protein production
1 | MYLLNDKVAHELKKPFGKVYKELPSIEGKVVSIGDVTTKHLLSNGIIPDLSILDFKTKRNIPVDIPHKFKTIFEVENPQGCISDEAIERIKYLSTIHDRDMALIIKGEEDLLTIPVIKYFPEDTSVIYGQPDEGMVLLKITDELKQKIEKLLKEMEER | failed
2 | MYLNPKLSYMQFFMGFLFVITFILATFNICSYLVAIVCMALLNLTFVIGAFQQKQYTSFVIALVMSFSFSIVAIVFYIK | failed
3 | MYLSLLKSLNRLSPRAWDFVQLTRIDKPIGIYLLLWPTLWAVWIAGKGSPSLNTVFIFVAGVFLMRAAGCVINDFADRKVDGHVKRTEQRPLVSGKVSSREALVLFAVLVSLSFVLVLFTNSTTIWLSFGGLALAACYPFMKRYTYYPQVVLGAAFSWGMPMAFTAETGELPAAAWLLYIANLLWTVGYDTYYAMVDRDDDLKIGVKSTAVLFGDADRVIILSLQGLALGCLALAGSRFELGAFFYMGLLVAAACFAWEFWSTRLRERDACFKAFLHNHWAGLAIFLGIVADYALR | failed
4 | MYLYLSLILLAFTLSLDSCSVGLTYGLRSVRIPLRSIIIIGMCSAAVMLVSMGIGHMIAKVFSPVIATRIGGLVLIGIGIWVLYQFFRSERKEEPKQEEKVWKLEIASLGLVIQILRKPTVADFDKSGTISAGEALLLGIALSVDSFGAGIGASLLGYAPAMMAILVAVMSSLFLFIGMKLGTVLSNMKWLQKFTFLPGVLLIIIGIWKM | failed
5 | MYMDHFPTFGGYIFSMATYYSLIPLTLLIALRAKWDYIMRHYWRSVARGFIIAILIALPVTSILQFKLTGDYLYVYSLTKTGVCITSSCLISRMKENEYYKFNVTGLQKYGIPNLGIMQAYRLVDKKFNKLKWRYDVVNAVVIIRSLFPLPITEVWSYEVDPKESHKIIGLRKFYVYYPYNPGTLLSRAYDFEFTMFLWGSGGGVA | failed
6 | MYMSSLQSTRERVLGTPRRRYKVLVAKMGLDGHDRGAKVVARALRDAGFEVVYTGLRQTPEQVAMAAVQEDVDVIGVSILNGAHLHLMKRLMAKLRELGADDIPVVLGGTIPIPDLEPLRSLGIREIFLPGTSLGEIIEKVRKLAEEKRMREEAEASEQVGQA | not failed
7 | MYNTVVYSIVVPLYNEELVIDENYMRLKKIMDSLKENYEIMYVNDGSKDSTMNKVEKICEKDKRIKLVNFSRNFGHQCAISAGMELSAGDAIIVIDADLQDPPEVIPQMIDKWKDGYDVVYGKRLKRKGESFLKKFTAKIFYRLLRSITNIDIPVDTGDFRLIDRKVCDTLSSLPERNRYVRGLVSWVGFKQTFVEFTRQERFAGASKYPLKKMLKLAFDGITSFSYKPLVASTYLGGLMFLLGLLAFIYVTAKNLYSHKTILTLGLILAINLCMFGLIFIILGILGQYIGRISDESKARPNYIIASTINYKENIKEVEPSEVKLN | failed
8 | MYPSSSPGHRQYFLGVKSSLPLLWLMVFPALIGGVLNINPVQAQGTPYIPPPITPPPLSPSENPFDPSLFPTDPLIPSGETLTPLQRRRLIEALDALEAEALVLDQAGQGDQAFEVRYRSLRGRQRLGDLAEVEALGRIGAIAWEQGRNQDVMAIGQRLEDLQLSLTKDKAMSPELLTAFAKAYGQLHSLDSAIAVYQQMRREAQQQGDYRRENQALSMLGELYLAKFNYPAAAEVYETLLARATNARNSYYEGIYLQKLGEIYQQSAQPDNAIRIKEQLVQRRLQDGKPELVPDIQIAIGDHYLELEQPENASQAYQKAYTLAWSIKQLSTAAIALDKLGDLYLFSEQPNYALQIYKQLLQVQQQSYNYYGMMITYEKIAQLYIDAQQTSAALTAYQQALSLARSLKYSTKENNILNQIQTISGGTGS | failed
9 | MYPYIKLIATLFRAKNSPQMNLDEKSVLNCRAGLTDIDVFVELNNARHLTYMEFGRWDFAQRTGLLSLMRKNKWAFAVGGASVRYRRRIAFWKKFTVTTQVICHDGRWFYFLQETHIKDKVCSSALIKAAFTSKQGLVPATEVLAAYGKTTPNFDVPDWVNAWIDAESQRPWPLEHHHHHH | not failed
10 | MYQDRQGVVGGGGGGGSAPHGIILAVVVALVVLVPFFIGDSGEAITDAIAELLSPVGLLLLPIILLLTIQFLSSERGSFVSAIFSTGEPESIHRVSGSPVGVALFLVLILFLLYYRFSIFGGDDGSDD | failed
11 | MYQTQTNKEKFVLFLKLFIPVLIYQFANFSATFIDSVMTGQYSQLHLAGVSTASNLWTPFFALLVGMISALVPVVGQHLGRGNKEQIRTEFHQFLYLGLILSLILFLIMQFIAQPVLGSLGLEDEVLAVGRGYLNYMLIGIMPLVLFSICRSFFDALGLTRLSMYLMLLILPFNSFFNYMLIYGKFGMPRLGGAGAGLGTSLTYWAIFIVIIIVMSLHPQIKTYHIWTLERIKAPLIIEDIRLGLPIGLQIFAEVAIFAVVGLFMAKFSSIIIAAHQAAMNFSSLMYAFPLSISTALAITISFEVGAERFQDANTYSRIGRLTAVGITSGTLLFLFLFRENVAAMYNSDPHFVAITAQFLTYSLFFQFADAYAAPVQGILRGYKDTTKPFMIGAGSYWLCALPLAVILEKNSQLGPFAYWIGLITGIFVCGLFLNQRLQKIKKLYY | failed
12 | MYRIIEAPNSGKYPFSHSLLIGKSCIIDTGSGEALAPLRVDCVLNTHWHEDHIAMNSIGRKVLAHPLDAEAIESYEEFRRRYGIGDSVRLFINFEFGQVDDVFEDGEQLEFEGVSVEVIHTPGHSAGHCCFVINNEAVFLGDIDLTSFGPWYGCLDCDVDDFVRSVKKMMREVERRDIEIAIPSHGRPVYGKEEIIGAMREYLKKIFERDKAIRELVRLGVDPVGKGIIYRKIPEPREIYLHFEKIMVEKHLTTSLDEFCLDLEHHHHHH | failed
13 | MYRLLALFVPPEAAFRTGRGFSFDAGEVTGAIGDSVTVLPLVVALGLLTPASLPHLLAGFGVFQVIWGLYYGVPLSVEPMKALAGLAIAGTLSHGGLVAAGLVAGGVLLVAGRTGSLSWIQQFVGEPVVRGVQFAVACLLVVAAVDLVAGSVGIAAAGAGLALVVALVSRNAVALVVLAVGAVWAATAGGIPAPAAPSLELFPAGGPTLSVGAIEGLLAQLAMTVGNAAVATSLLLSDLYDAEISPDRLADSMGAMNLAAVPLGAVPMCHGSGGLAGKHAFGARTGTANLVAGGFYAGLALVAGLLAAFPMALLGVLLVVVAASLSRVAFTKTDRRLFVAGVGGLAVVTNVAVAFVAATLWWQLRG | failed
14 | MYRMDKYTIGLIRVITLEDKEILNLHGRIIESAFPELKVVSRCIEDQPKGIYNEETEREAEPKIIRLAKEFEREGVDAIIISCAADPAVEKVRKLLSIPVIGAGSSVSALALAYGRRVGVLNLTEETPKVIRSILGNNLIAEDHPSGVSNTLDLLTDWGRREVINAAKRLKEKGVEVIALGCTGMSTIGIAPVLEEEVGIPVIDPVIASGAVALHALKRREVKRFEGR | not failed
15 | MYRTTGPALRPGGFELTDWAVEHCRFQAGDRILDVGCGRGATVDRLRSHYHLEAYGIDPSATLLTLGQETYPDLPLSKARGEDIPFTNSCFDGVFVECSLSLMTDPDQALSEIRRVLKVKGKLIIHDVYARNPQGTPDLRELSIGTCIRNALVKEDLEHGLESKGLRTIHWQDHSPLLNRLMMELIMTHGSMSAFWLKSTHCSADSNRVQAALKKAKVGYFQLIAEKEAEKEAEHCPVR | failed
16 | MYSELKEGVNLYNKKDYQEALVFFLSVSTEDVLIKIEINYYIGLIYSRLSEYEQALEYLEQVVTASKDIAKVYQCRLILAFIYANTGRTRLAEFELSKLIEAGYESVQVFSSLAYVYYEHHEIEKAIDYYEKALKTAPENSTALNGLAYILAETDRDLTRSLLLCKKAVEKQPENPAYLDSMALIYHKMNLPSEAKSYITRAKEKLPDNKIILKHFEMISSDAREA | failed
17 | MYTYSLLNLSHCRRQTRKKRKTDHTEGFLMEETKPKTVEDVETVDVYTAKGFLSTGHRYLDVRTNEEFAKSHVEEALNIPYMFKTDEGRVINPDFLSQVASVCKKDEHLIVACNAGGRGSRACVDLLNEGYDHVANMGGGYSAWVDAGFAGDKPPEDLKIACKFRPKEN | failed
18 | MYYLFIFEMLWLLFVIVFVSFLSFSDFDRKKVNYFSVVIVGILLSITAGFRNVGGVDTDYAIYKNHYNGELGSYSYELFEPGYNTVVWLGNIVGLSFNLFVFILTSICLLLLLKLIFKYSKYPMLSVMIYLGTYFLFYNMVLMRQMVSVVMFLYCINYTIEKKYIKCLLCFLVGLSFHLSMIVFLPAFFVLRYFKLNIWNIIFILIIGVFLKIVGAINLVMFVGGVIESRMANYLAGDGFTLNIMEYIKMIIIICAILILFPKLIGDYFNEILIKSYCVFFILIFAFGDIEIFFRIAMYFDLVILFLIPILFDKISMTRFSRITIYTLVVIFFAFSFIYRVHNFDNGEFYQYKFFFLE | failed
19 | NAVHFGAGNIGRGFIGKLLADAEVEVTFADVDVPLVDQLSHKQEYKVKVVGTECKIDTVTHVTAVNSASEDVIDRIVKTDLVTTAVGPNVLDIIAKTIAKGIAKRFEAGNDAPLNIIACENMVRGTTHLKGEVYKHLDKSLHAKADELVGFVDSAVDRIVPPAEAANDDPLEVTVESFSEWIVDEQQFKGDIPNIAGMEKTNN | not failed
20 | NDALRVMAGDLQRSEEKFRSMTDAAHDAVFMLNNEGKIVYRNTAAETLFGFSREEYGDQLFWELISPEFADFNIHDVCEMMPDEALPDFNSETRVRQIEGLRKDGSLVPIEISRGCVHIESVHHTVVIARDIT | failed
21 | NFATGTIATDPLNDSQVAVIASISKEMPGISISTSWDRKVLETSLSSIVGSVSSEKAGLPAEEAEAYLKKGYSLNDRVGTSYLEKQYEETLQGKRSVKEIHLDKYGNMESVDTIEEGSKGNNIKLTID | failed
22 | NFNPPTRRNWESNYFGMPLQDLVTAEKPIPLFVEKCVEFIEDTGLCTERLYRVSGNKTDQENIQKQFVQDHNINLVSMEVTVNAVAGALKAFFADLPDPLIPYSLHPELLEAAKIPDKTERLHALKEIVKKFHPVNYDVFRYVITHLNRVSQQHKINLMTADNLSICFGQPLMRPDLKSMEFLSTTKIHQSVVETFIQQCQFFFYNGEIVETTNIVAPPPPSNPG | failed
23 | NFVPGMEFSMADASSIAIIGGADGPTAIFLASQLSPDLLGAIAVAAYSYMALVPIIQPPIMKALTTPEERKIKMAQLRHVGKTEKIVFPLV | failed
24 | NGSERGVLLSVIDRTEERHAKGLRRQVDHRFDKLVGTISEGVLLMDDTGVFRDGNEAAQNILGRSLDEIIGSRFDDDIWNGLREDGSPLPNVEFPFWRAYVEREPVQEEVMGVYPPDAPPRWIRVNAQPLFRSGQEAPYAVLVSFDDITDERLKEEALQTSRDLLSSVLSSSL | failed
25 | NHSHSLAVIGSRNATQYTSQSLNYLFPSFRQLNMAIVSGLARGADSVAHQTALKYLLPTIGVLGFGHCYHYPKATLNLRTKVERNGLVISEYPPFSPISKHKFPERNRLISGLSRGVLITEAEERSGSQITIDCALEQNRNVYVLPGSMFNKMTKGNLRRINEGAQVVIDESSILYDYLF | failed
26 | NIDLDVQNMAQNALKFGYDEIVKRDKDANLSTLNGAMVVVNHQSGDVLALVGGVDYEKSNYNRATQSMRQPGSSFKPFVYQVAINLGYSPMSEIADISRIFEGGAGNNEDWKPKNEGGKFLGLITLKEALTRSRNLATINLALDMGLDVLYSKLMEFGFKDIPPNLSIVLGSFGISPLEYSKFYTMFGNYGTIKDPQIIRQVQDKTGKTIMEFNSNERKVSDEAQSFLVLDMMRNVVEKGTGRNARVKDIEIAGKTGTTNKSVDAWFCGLTPEIEAIIWYGNDNNKPMRYTEGGARTAAPVFREFLTQYIEKFPDTTR | failed
27 | NIEQLSQSLEHMANQAATLDRQRGEHHVPLFDERLFSCRSRLLTPCVKEAKSTLDAIIREQNENKLTALRAEYLTERLVAQIGAIQREISTTKIRKNEIKHSSHFRKPINVLYQELAQHQEWARRLREMVLEKERAVETAPSFMRAEAQKVLLATEQRLARCEAALLKLENQITHREK | failed
